Data: article PMC10058238, “Mechanism of sphingolipid homeostasis revealed by structural analysis of Arabidopsis SPT-ORM1 complex” (Science Advances, 2023)

T1: Flag-tagged Arabidopsis SPTssa (Arabidopsis, UniProt A8MSB8 1-56)
T1 construct: SPTssa, small subunit of serine palmitoyltransferase, Arabidopsis; codon-optimized cDNA in pCAG; residues 1 to 48 are in the atomic model; The only tagged subunit; bait of every purification; also called Flag-SPTssa; Flag-AtSPTssa; source: HEK293F, transiently cotransfected with the other subunits, purified as a complex (anti-Flag resin, Superose 6) in GDN; not shown: Flag, N-terminal, kept
T1 sequence: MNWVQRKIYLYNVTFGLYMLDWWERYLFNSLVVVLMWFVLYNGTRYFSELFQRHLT

T2: Arabidopsis SPT complex (LCB1, LCB2a, SPTssa) (Arabidopsis, UniProt Q94IB8 1-482; Q9LSZ9 1-489; A8MSB8 1-56)
T2 sequence 1: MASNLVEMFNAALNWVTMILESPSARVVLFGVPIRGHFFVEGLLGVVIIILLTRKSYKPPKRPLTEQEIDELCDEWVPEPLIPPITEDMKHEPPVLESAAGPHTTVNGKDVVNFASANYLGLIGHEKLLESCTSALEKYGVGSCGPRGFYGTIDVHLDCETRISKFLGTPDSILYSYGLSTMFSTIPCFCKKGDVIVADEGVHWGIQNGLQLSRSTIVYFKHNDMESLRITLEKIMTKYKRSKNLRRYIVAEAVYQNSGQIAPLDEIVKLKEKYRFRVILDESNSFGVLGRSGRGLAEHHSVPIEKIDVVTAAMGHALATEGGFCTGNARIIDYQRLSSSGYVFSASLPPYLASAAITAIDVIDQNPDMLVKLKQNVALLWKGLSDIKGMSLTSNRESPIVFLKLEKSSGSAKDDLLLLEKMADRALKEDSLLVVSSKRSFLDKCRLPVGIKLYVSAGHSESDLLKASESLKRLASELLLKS
T2 sequence 2: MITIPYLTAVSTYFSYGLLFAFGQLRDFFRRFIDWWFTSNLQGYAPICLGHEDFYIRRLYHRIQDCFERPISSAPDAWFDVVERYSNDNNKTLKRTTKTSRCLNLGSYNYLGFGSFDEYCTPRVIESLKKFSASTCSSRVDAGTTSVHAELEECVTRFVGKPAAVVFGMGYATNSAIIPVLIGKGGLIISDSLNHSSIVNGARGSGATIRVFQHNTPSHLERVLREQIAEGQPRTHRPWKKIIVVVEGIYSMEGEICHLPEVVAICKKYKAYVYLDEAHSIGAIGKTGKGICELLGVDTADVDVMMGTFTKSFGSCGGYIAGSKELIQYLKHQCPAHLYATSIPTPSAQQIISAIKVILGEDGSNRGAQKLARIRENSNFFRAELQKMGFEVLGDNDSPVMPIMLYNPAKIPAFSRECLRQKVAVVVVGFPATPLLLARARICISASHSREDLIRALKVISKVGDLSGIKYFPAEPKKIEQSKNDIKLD
T2 sequence 3: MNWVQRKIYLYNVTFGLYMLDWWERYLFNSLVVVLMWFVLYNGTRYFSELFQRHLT

T3: Arabidopsis LCB2a-ΔN5 (Arabidopsis, UniProt Q9LSZ9 1-489, LCB2a-ΔN5 (deletion of residues 2 to 5))
T3 construct: LCB2a, Arabidopsis, with residues 2 to 5 deleted; also called LCB2a-ΔN5 variant
T3 sequence: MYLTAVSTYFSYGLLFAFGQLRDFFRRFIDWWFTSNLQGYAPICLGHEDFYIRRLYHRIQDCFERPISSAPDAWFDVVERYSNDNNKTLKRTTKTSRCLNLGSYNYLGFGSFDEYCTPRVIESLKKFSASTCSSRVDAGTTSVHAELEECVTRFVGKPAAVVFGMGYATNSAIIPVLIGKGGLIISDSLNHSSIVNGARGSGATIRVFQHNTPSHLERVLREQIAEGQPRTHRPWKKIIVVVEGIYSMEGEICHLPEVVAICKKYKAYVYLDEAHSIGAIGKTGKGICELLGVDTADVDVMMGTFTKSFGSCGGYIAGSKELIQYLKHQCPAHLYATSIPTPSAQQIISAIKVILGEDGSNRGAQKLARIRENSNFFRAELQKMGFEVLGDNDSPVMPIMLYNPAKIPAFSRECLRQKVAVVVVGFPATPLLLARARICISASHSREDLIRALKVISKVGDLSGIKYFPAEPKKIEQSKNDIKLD

B1: Arabidopsis LCB2a (natural protein)
chain: MITIPYLTAVSTYFSYGLLFAFGQLRDFFRRFIDWWFTSNLQGYAPICLGHEDFYIRRLYHRIQDCFERPISSAPDAWFDVVERYSNDNNKTLKRTTKTSRCLNLGSYNYLGFGSFDEYCTPRVIESLKKFSASTCSSRVDAGTTSVHAELEECVTRFVGKPAAVVFGMGYATNSAIIPVLIGKGGLIISDSLNHSSIVNGARGSGATIRVFQHNTPSHLERVLREQIAEGQPRTHRPWKKIIVVVEGIYSMEGEICHLPEVVAICKKYKAYVYLDEAHSIGAIGKTGKGICELLGVDTADVDVMMGTFTKSFGSCGGYIAGSKELIQYLKHQCPAHLYATSIPTPSAQQIISAIKVILGEDGSNRGAQKLARIRENSNFFRAELQKMGFEVLGDNDSPVMPIMLYNPAKIPAFSRECLRQKVAVVVVGFPATPLLLARARICISASHSREDLIRALKVISKVGDLSGIKYFPAEPKKIEQSKNDIKLD
modifications: pyridoxal 5'-phosphate covalently linked to the ε-amino group of Lys311 (internal aldimine)
notes: LCB2a, subunit of serine palmitoyltransferase, Arabidopsis; codon-optimized cDNA in pCAG without a tag; residues 1 to 36 and 41 to 475 are in the atomic model; The sentence on the PLP link prints 'LCB2b'; the construct is LCB2a; also called AtLCB2a; source: HEK293F, transiently cotransfected with the other subunits, purified as a complex (anti-Flag resin, Superose 6) in GDN

Tests used:
[1] = molecular target: T1, Flag-tagged Arabidopsis SPTssa; assay: cryo-EM structure; single-particle cryo-EM of the coexpressed, purified complexes (WT, ORM1-N17A, LCB2a-ΔN5) at ~18 mg/ml in 25 mM Hepes pH 7.5, 150 mM NaCl, 0.01% GDN; the LCB2a-ΔN5 sample preincubated with 0.5 mM PLP, 10 mM L-serine and 1 mM S-CoA; conditions: both partners purified
[2] = molecular target: T2, Arabidopsis SPT complex (LCB1, LCB2a, …); assay: cell-based or functional assay
[3] = molecular target: B1; assay: cryo-EM structure; single-particle cryo-EM of the coexpressed, purified complexes (WT, ORM1-N17A, LCB2a-ΔN5) at ~18 mg/ml in 25 mM Hepes pH 7.5, 150 mM NaCl, 0.01% GDN; the LCB2a-ΔN5 sample preincubated with 0.5 mM PLP, 10 mM L-serine and 1 mM S-CoA; conditions: both partners purified
[4] = molecular target: T3, Arabidopsis LCB2a-ΔN5; assay: as above; conditions: both partners purified
[5] = molecular target: the molecule itself; assay: as above

stoichiometry N [1]	binding result [3]	Binder	also measured
1	–	B1	–
1	binds	Arabidopsis ORM1 (natural protein, ORM1, Arabidopsis; codon-optimized cDNA in pCAG without a tag; residues 1 to 156 are in the atomic model; also called AtORM1; WT ORM1) MANLYVKAVPPPDMNRNTEWFMYPGVWTTYMLILFFGWLVVLSVSGCSPGMAWTVVNLAHFVVTYHSFHWMKGTPFADDQGIYNGLTWWEQMDNGQQLTRNRKFLTLVPVVLYLIASHTTDYRHPWLFLNTLAVMVLVVAKFPNMHKVRIFGINGDK	specific SPT activity of the purified SPT-ORM1 complex at saturating conditions, relative to the SPT complex [2]: ~50%; binding result [4]: binds
–	–	Arabidopsis SPT-ORM1 complex (LCB1, LCB2a, SPTssa, ORM1) (complex, pyridoxal 5'-phosphate covalently linked to the ε-amino group of Lys311 (internal aldimine), LCB1, Arabidopsis; as m1; LCB2a, Arabidopsis; as m2; SPTssa, Arabidopsis; as m3; ORM1, Arabidopsis; as m4; One protomer (1:1:1:1) of the dimer seen by cryo-EM; an endogenous ceramide copurifies between ORM1 and LCB2a; also called AtSPT-ORM1; WT SPT-ORM1 complex; source: HEK293F, transiently cotransfected (LCB1:LCB2a:ORM1:SPTssa = 3:3:3:1), purified (anti-Flag resin, Superose 6) in GDN; not shown: …) chain 1: MASNLVEMFNAALNWVTMILESPSARVVLFGVPIRGHFFVEGLLGVVIIILLTRKSYKPPKRPLTEQEIDELCDEWVPEPLIPPITEDMKHEPPVLESAAGPHTTVNGKDVVNFASANYLGLIGHEKLLESCTSALEKYGVGSCGPRGFYGTIDVHLDCETRISKFLGTPDSILYSYGLSTMFSTIPCFCKKGDVIVADEGVHWGIQNGLQLSRSTIVYFKHNDMESLRITLEKIMTKYKRSKNLRRYIVAEAVYQNSGQIAPLDEIVKLKEKYRFRVILDESNSFGVLGRSGRGLAEHHSVPIEKIDVVTAAMGHALATEGGFCTGNARIIDYQRLSSSGYVFSASLPPYLASAAITAIDVIDQNPDMLVKLKQNVALLWKGLSDIKGMSLTSNRESPIVFLKLEKSSGSAKDDLLLLEKMADRALKEDSLLVVSSKRSFLDKCRLPVGIKLYVSAGHSESDLLKASESLKRLASELLLKS chain 2: MITIPYLTAVSTYFSYGLLFAFGQLRDFFRRFIDWWFTSNLQGYAPICLGHEDFYIRRLYHRIQDCFERPISSAPDAWFDVVERYSNDNNKTLKRTTKTSRCLNLGSYNYLGFGSFDEYCTPRVIESLKKFSASTCSSRVDAGTTSVHAELEECVTRFVGKPAAVVFGMGYATNSAIIPVLIGKGGLIISDSLNHSSIVNGARGSGATIRVFQHNTPSHLERVLREQIAEGQPRTHRPWKKIIVVVEGIYSMEGEICHLPEVVAICKKYKAYVYLDEAHSIGAIGKTGKGICELLGVDTADVDVMMGTFTKSFGSCGGYIAGSKELIQYLKHQCPAHLYATSIPTPSAQQIISAIKVILGEDGSNRGAQKLARIRENSNFFRAELQKMGFEVLGDNDSPVMPIMLYNPAKIPAFSRECLRQKVAVVVVGFPATPLLLARARICISASHSREDLIRALKVISKVGDLSGIKYFPAEPKKIEQSKNDIKLD chain 3: MNWVQRKIYLYNVTFGLYMLDWWERYLFNSLVVVLMWFVLYNGTRYFSELFQRHLT chain 4: MANLYVKAVPPPDMNRNTEWFMYPGVWTTYMLILFFGWLVVLSVSGCSPGMAWTVVNLAHFVVTYHSFHWMKGTPFADDQGIYNGLTWWEQMDNGQQLTRNRKFLTLVPVVLYLIASHTTDYRHPWLFLNTLAVMVLVVAKFPNMHKVRIFGINGDK	stoichiometry N [5]: 2
–	binds	Arabidopsis ORM1-N17A (natural protein, ORM1, Arabidopsis, with N17A; residues 1 to 11 almost invisible in the map; also called ORM1-N17A variant) MANLYVKAVPPPDMNRATEWFMYPGVWTTYMLILFFGWLVVLSVSGCSPGMAWTVVNLAHFVVTYHSFHWMKGTPFADDQGIYNGLTWWEQMDNGQQLTRNRKFLTLVPVVLYLIASHTTDYRHPWLFLNTLAVMVLVVAKFPNMHKVRIFGINGDK	–
1	–	Arabidopsis LCB1 (natural protein, UniProt Q94IB8 1-482, looked up, LCB1, subunit of serine palmitoyltransferase, Arabidopsis; codon-optimized cDNA in pCAG without a tag; residues 36 to 480 are in the atomic model; also called AtLCB1; source: HEK293F, transiently cotransfected with the other subunits, purified as a complex (anti-Flag resin, Superose 6) in GDN) MASNLVEMFNAALNWVTMILESPSARVVLFGVPIRGHFFVEGLLGVVIIILLTRKSYKPPKRPLTEQEIDELCDEWVPEPLIPPITEDMKHEPPVLESAAGPHTTVNGKDVVNFASANYLGLIGHEKLLESCTSALEKYGVGSCGPRGFYGTIDVHLDCETRISKFLGTPDSILYSYGLSTMFSTIPCFCKKGDVIVADEGVHWGIQNGLQLSRSTIVYFKHNDMESLRITLEKIMTKYKRSKNLRRYIVAEAVYQNSGQIAPLDEIVKLKEKYRFRVILDESNSFGVLGRSGRGLAEHHSVPIEKIDVVTAAMGHALATEGGFCTGNARIIDYQRLSSSGYVFSASLPPYLASAAITAIDVIDQNPDMLVKLKQNVALLWKGLSDIKGMSLTSNRESPIVFLKLEKSSGSAKDDLLLLEKMADRALKEDSLLVVSSKRSFLDKCRLPVGIKLYVSAGHSESDLLKASESLKRLASELLLKS	–
